Substitutions are numbered along the chain they refer to. In names and notes the source's numbering stands. Where no end group is shown, it is not given here.
B1: ATAD3A (endogenous, human cells and tissue) (other, UniProt Q9NVI7 2-586, looked up)
chain: SWLFGINKGPKGEGAGPPPPLPPAQPGAEGGGDRGLGDRPAPKDKWSNFDPTGLERAAKAARELEHSRYAKDALNLAQMQEQTLQLEQQSKLKEYEAAVEQLKSEQIRAQAEERRKTLSEETRQHQARAQYQDKLARQRYEDQLKQQQLLNEENLRKQEESVQKQEAMRRATVEREMELRHKNEMLRVEAEARARAKAERENADIIREQIRLKAAEHRQTVLESIRTAGTLFGEGFRAFVTDWDKVTATVAGLTLLAVGVYSAKNATLVAGRFIEARLGKPSLVRETSRITVLEALRHPIQVSRRLLSRPQDALEGVVLSPSLEARVRDIAIATRNTKKNRSLYRNILMYGPPGTGKTLFAKKLALHSGMDYAIMTGGDVAPMGREGVTAMHKLFDWANTSRRGLLLFVDEADAFLRKRATEKISEDLRATLNAFLYRTGQHSNKFMLVLASNQPEQFDWAINDRINEMVHFDLPGQEERERLVRMYFDKYVLKPATEGKQRLKLAQFDYGRKCSEVARLTEGMSGREIAQLAVSWQATAYASEDGVLTEAMMDTRVQDAVQQHQQKMCWLKAEGPGRGDEPSPS
notes: Endogenous protein in lysates
B2: ATAD3A (endogenous, mouse cells and mouse striatum) (other, UniProt Q925I1 2-591, looked up)
chain: SWLFGIKGPKGEGTGPPLPLPPAQPGAEGGGDRGAGDRPSPKDKWSNFDPTGLERAAKAARELEHSRHAKEALSLAQMQEQTLQLEQQSKLKEYEAAVEQLKSEQIRVQAEERRKTLTEETRQHQARAQYQDKLARQRYEDQLKQQQLLNEENLRKQEESVQKQEAIRRATVEREMELRHKNEMLRVEAEARARAKADRENADIIREQIRLKAAEHRQTILESIRTAGTLLGEGFRAFVTDWDKVTATVAGLTLLAVGVYSAKNATSVAGRYIEARLGKPSLVRETSRISVLEALRHPIQVSRRLVSRPQDALEGVILSPSLEARVRDIAIATRNTKKNKSLYRNVLMYGPPGTGKTLFAKKLALHSGMDYAIMTGGDVAPMGREGVTAMHKVFDWASTSRRGLLLFVDEADAFLRKRATEKISEDLRATLNAFLHRTGQHSSKFMLVLASNQPEQFDWAINDRIDEMVCFALPQREERERLVRMYFDKYVLKPATEGKQRLKVAQFDYGKKCSEVAQLTEGMSGREIAQLAVAWQAMAYSSEDGVLTEAMMDARVQDAVQQHQQKMQWLKVERPDSQTNKPPHPSLLSC
notes: Endogenous protein in lysates; also called endogenous ATAD3A
B3: Myc-tagged ATAD3A (other, human, UniProt Q9NVI7 1-586, looked up)
chain: MSWLFGINKGPKGEGAGPPPPLPPAQPGAEGGGDRGLGDRPAPKDKWSNFDPTGLERAAKAARELEHSRYAKDALNLAQMQEQTLQLEQQSKLKEYEAAVEQLKSEQIRAQAEERRKTLSEETRQHQARAQYQDKLARQRYEDQLKQQQLLNEENLRKQEESVQKQEAMRRATVEREMELRHKNEMLRVEAEARARAKAERENADIIREQIRLKAAEHRQTVLESIRTAGTLFGEGFRAFVTDWDKVTATVAGLTLLAVGVYSAKNATLVAGRFIEARLGKPSLVRETSRITVLEALRHPIQVSRRLLSRPQDALEGVVLSPSLEARVRDIAIATRNTKKNRSLYRNILMYGPPGTGKTLFAKKLALHSGMDYAIMTGGDVAPMGREGVTAMHKLFDWANTSRRGLLLFVDEADAFLRKRATEKISEDLRATLNAFLYRTGQHSNKFMLVLASNQPEQFDWAINDRINEMVHFDLPGQEERERLVRMYFDKYVLKPATEGKQRLKLAQFDYGRKCSEVARLTEGMSGREIAQLAVSWQATAYASEDGVLTEAMMDTRVQDAVQQHQQKMCWLKAEGPGRGDEPSPS
notes: also called Myc-ATAD3A; ATAD3A-WT (heterodimer partner); not shown: Myc tag (pCMV-Myc vector)
B4: ATAD3A-Flag protein (human ATAD3A wildtype, Flag-tagged) (other, UniProt Q9NVI7 1-586, looked up)
chain: B3 chain
notes: Made cell-free (TNT system) from pcDNA3.1(+)-ATAD3A-Flag for the in vitro assays, or expressed in HEK293 cells; the same construct is used for both here; also called ATAD3A WT; flag-tagged ATAD3A; not shown: Flag tag
B5: ATAD3A K135Q (Flag-tagged) (other, human, UniProt Q9NVI7 1-586, looked up)
chain: B3 chain with K135Q
notes: Expressed in HEK293 cells; also called K135Q mutant; acetyl-mimetic ATAD3A K135Q mutant; not shown: Flag tag
B6: ATAD3A K135R (Flag-tagged) (other, human, UniProt Q9NVI7 1-586, looked up)
chain: B3 chain with K135R
notes: Expressed in HEK293 cells; also called K135R mutant; acetyl-deficient mutant K135R; not shown: Flag tag
B7: ATAD3A K135E (Flag-tagged) (other, human, UniProt Q9NVI7 1-586, looked up)
chain: B3 chain with K135E
notes: Expressed in HEK293 cells; also called K135E mutant; acetyl-deficient mutant K135E; not shown: Flag tag
B8: Biotin-conjugated DA1 (peptide)
peptide: YGRKKRRQRRRGGEDKRKT
modifications: also: biotin, position not given here
notes: also called biotin-DA1

Tests used:
[1] = molecular target: the molecule itself; assay: self-association; western blot under non-reducing conditions
[2] = molecular target: T1, Drp1 (endogenous, human cells and tissue) (human, UniProt O00429 1-736, limits assumed); assay: anti-Drp1 affinity purification and tandem mass spectrometry, neurons from HD patient iPS cells
T1 construct: Endogenous protein in lysates; also called Dynamin-related protein 1

[3] = molecular target: B4; assay: co-IP
[4] = molecular target: the molecule itself; assay: self-association; western blot with or without β-ME, HEK293 cells
[5] = molecular target: B3; assay: anti-Flag IP, anti-Myc western blot
[6] = molecular target: T1, Drp1 (endogenous, human cells and …); assay: IP of total lysates of transfected HEK293 cells
[7] = molecular target: T2, GST-Drp1 recombinant protein (UniProt O00429-3 1-710, limits assumed); assay: biotin-DA1 with purified protein, streptavidin beads, western blot
T2 construct: Bought (Abnova); also called Dynamin-related protein 1; not shown: GST tag

[8] = molecular target: B4; assay: biotin-DA1 (10 µM) with purified protein, streptavidin beads, western blot
[9] = molecular target: ClpP (mitochondrial matrix protein, endogenous in HD striatal cells) (mouse, UniProt O88696 53-272); assay: biotin-DA1 with total lysates of HD striatal cells, streptavidin beads, western blot
[10] = molecular target: T3, VDAC (OMM protein, endogenous in HD striatal cells) (mouse, UniProt Q3U6K8 2-283); assay: as above
T3 construct: also called voltage-dependent anion channel

[11] = molecular target: T4, Drp1 (endogenous, mouse striatal cells and mouse striatum) (mouse, UniProt Q8K1M6 1-736, limits assumed); assay: as above
T4 construct: Endogenous protein in lysates; also called Dynamin-related protein 1

[12] = molecular target: B2; assay: biotin-DA1 (10 µM) with total lysates of HD striatal cells, streptavidin beads, western blot

T1 sequence (O00429 whole entry): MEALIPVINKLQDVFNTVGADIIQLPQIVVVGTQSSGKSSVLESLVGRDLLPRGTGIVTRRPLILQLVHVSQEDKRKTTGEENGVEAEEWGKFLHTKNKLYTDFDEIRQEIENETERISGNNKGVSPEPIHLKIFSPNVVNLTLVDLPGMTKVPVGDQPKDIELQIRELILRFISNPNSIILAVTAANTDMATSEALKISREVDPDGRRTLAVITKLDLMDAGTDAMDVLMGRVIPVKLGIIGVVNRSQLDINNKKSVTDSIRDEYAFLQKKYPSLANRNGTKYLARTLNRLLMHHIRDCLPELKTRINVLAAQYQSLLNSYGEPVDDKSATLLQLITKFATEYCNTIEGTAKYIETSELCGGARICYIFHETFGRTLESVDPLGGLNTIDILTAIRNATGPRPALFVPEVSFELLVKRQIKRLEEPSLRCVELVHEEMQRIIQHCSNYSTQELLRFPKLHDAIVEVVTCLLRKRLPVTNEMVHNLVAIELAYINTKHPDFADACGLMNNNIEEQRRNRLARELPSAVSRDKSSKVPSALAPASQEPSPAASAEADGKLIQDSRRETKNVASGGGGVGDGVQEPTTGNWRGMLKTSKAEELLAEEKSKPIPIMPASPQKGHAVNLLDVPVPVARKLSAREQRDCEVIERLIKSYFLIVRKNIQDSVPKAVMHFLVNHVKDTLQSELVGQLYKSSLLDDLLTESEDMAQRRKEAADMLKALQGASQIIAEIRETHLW
T2 sequence (O00429 other isoform, or with tags, fused parts or gaps limits assumed): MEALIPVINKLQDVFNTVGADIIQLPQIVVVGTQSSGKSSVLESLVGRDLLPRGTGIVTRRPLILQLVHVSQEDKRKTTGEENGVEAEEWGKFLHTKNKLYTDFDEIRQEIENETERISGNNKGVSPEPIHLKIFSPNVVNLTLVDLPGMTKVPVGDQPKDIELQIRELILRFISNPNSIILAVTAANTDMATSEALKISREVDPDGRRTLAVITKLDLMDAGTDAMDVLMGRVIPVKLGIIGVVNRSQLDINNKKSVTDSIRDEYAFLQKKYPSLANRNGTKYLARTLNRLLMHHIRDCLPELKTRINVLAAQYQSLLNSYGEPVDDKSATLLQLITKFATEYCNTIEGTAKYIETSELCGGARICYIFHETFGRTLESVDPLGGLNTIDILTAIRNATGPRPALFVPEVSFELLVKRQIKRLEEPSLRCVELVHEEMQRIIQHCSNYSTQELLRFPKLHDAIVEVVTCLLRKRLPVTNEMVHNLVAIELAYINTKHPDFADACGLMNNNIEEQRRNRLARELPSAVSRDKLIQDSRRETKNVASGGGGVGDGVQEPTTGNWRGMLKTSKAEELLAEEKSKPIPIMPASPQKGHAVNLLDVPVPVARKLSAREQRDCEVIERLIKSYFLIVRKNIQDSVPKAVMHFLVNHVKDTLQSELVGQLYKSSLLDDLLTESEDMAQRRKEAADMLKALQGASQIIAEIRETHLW
ClpP (mitochondrial matrix protein, endogenous in HD striatal cells), sequence (O88696 53-272 limits assumed): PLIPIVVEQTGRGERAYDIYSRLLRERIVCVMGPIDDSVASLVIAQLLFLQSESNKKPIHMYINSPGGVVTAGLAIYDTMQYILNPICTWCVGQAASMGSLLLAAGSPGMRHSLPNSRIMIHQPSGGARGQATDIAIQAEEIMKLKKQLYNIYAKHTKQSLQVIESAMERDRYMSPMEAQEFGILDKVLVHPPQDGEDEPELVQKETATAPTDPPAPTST
T4 sequence (Q8K1M6 whole entry): as the sequence (O00429 whole entry) above, with I57V, Q72P, I134V, V528G, S548P, S563N, A571P, G573A, V577I, V581G counted along it

B1: binds [1]; binds [2].

B2: binds [1].

B3: binds [3].

B4: binds [4].

B5: binds [5]; no binding [6]; binds [4].

B6: binds [6]; binds [4].

B7: binds [5]; binds [6]; binds [4].

B8: no binding (tested: 10 µM) [7]; binds [8]; no binding (tested: 10 µM) [9]. B8: no binding (tested: 10 µM) [10]; no binding (tested: 10 µM) [11]; binds [12].

From patent publication US20210322524A1 (CASE WESTERN RESERVE UNIVERSITY, published 2021)
